Source: US20150132254A1 (MIT, published 2015)

T1: soluble murine CD25 (His-tagged recombinant mouse IL-2Rα/CD25, R&D Systems) (mouse, UniProt P01590 22-236, limits assumed)
T1 construct: Bought reagent, described only as soluble and His-tagged; also called soluble CD25; mouse CD25
T1 sequence (looked up): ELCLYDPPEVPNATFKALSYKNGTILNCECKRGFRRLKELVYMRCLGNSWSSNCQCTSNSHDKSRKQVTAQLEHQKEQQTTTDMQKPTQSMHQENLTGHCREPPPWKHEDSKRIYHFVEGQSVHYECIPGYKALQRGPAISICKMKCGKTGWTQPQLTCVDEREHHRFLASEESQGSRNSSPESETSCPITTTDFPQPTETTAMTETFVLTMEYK


Target: T1, soluble murine CD25 (His-tagged …)
Assay: yeast surface display, flow cytometry
Description: EBY100 yeast harboring each of these clones were grown and induced as described (Chao et al. Nat Protocols 2006; 1(2):755-768). CD25 binding capacity was determined by labeling induced yeast with 50 nM soluble murine CD25 (R&D Systems). Proper protein folding was determined by labeling yeast displaying IL-2 variants before and after thermal denaturation with anti-mouse IL-2 antibodies. […] Anti-mouse IL-2 antibodies used were S4B6 (gift of Jianzhu Chen Lab, MIT), JES6-1A12, and JES6-5H4 (eBioscience).

Binder | binding result
wild-type murine IL-2 (yeast-displayed) (ligand, Aga2p fusion with HA and c-myc tags; also called mIL-2; mouse IL-2) APTSSSTSSSTAEAQQQQQQQQQQQQHLEQLLMDLQELLSRMENYRNLKLPRMLTFKFYLPKQATELKDLQCLEDELGPLRHVLDLTQSKSFQLEDAENFISNIRVTVVKLKGSDNTFECQFDDESATVVDFLRRWIAFCQSIISTSPQ | binds
mouse IL-2 E76F (yeast-displayed) (ligand, also called E76 mutant) APTSSSTSSSTAEAQQQQQQQQQQQQHLEQLLMDLQELLSRMENYRNLKLPRMLTFKFYLPKQATELKDLQCLEDFLGPLRHVLDLTQSKSFQLEDAENFISNIRVTVVKLKGSDNTFECQFDDESATVVDFLRRWIAFCQSIISTSPQ | no binding (tested: 5 or 50 nM soluble CD25)
mouse IL-2 E76R (yeast-displayed) (ligand, also called E76 mutant) APTSSSTSSSTAEAQQQQQQQQQQQQHLEQLLMDLQELLSRMENYRNLKLPRMLTFKFYLPKQATELKDLQCLEDRLGPLRHVLDLTQSKSFQLEDAENFISNIRVTVVKLKGSDNTFECQFDDESATVVDFLRRWIAFCQSIISTSPQ | no binding (tested: 5 or 50 nM soluble CD25)
mouse IL-2 E76A (yeast-displayed) (ligand, also called E76A IL-2) APTSSSTSSSTAEAQQQQQQQQQQQQHLEQLLMDLQELLSRMENYRNLKLPRMLTFKFYLPKQATELKDLQCLEDALGPLRHVLDLTQSKSFQLEDAENFISNIRVTVVKLKGSDNTFECQFDDESATVVDFLRRWIAFCQSIISTSPQ | no binding (tested: 50 nM)
mouse IL-2 E76G (yeast-displayed) (ligand, also called E76G IL-2) APTSSSTSSSTAEAQQQQQQQQQQQQHLEQLLMDLQELLSRMENYRNLKLPRMLTFKFYLPKQATELKDLQCLEDGLGPLRHVLDLTQSKSFQLEDAENFISNIRVTVVKLKGSDNTFECQFDDESATVVDFLRRWIAFCQSIISTSPQ | no binding (tested: 50 nM)

Target: T1, soluble murine CD25 (His-tagged …)
Assay: not stated (legend of the schematic FIG. 5)

Binder | Kd
D265AFc/IL-2 (monovalent mouse IgG2a D265A Fc / wild-type mouse IL-2 heterodimer) (Fc fusion, also called D265A Fc/wt mIL-2) chain 1: EPRVPITQNPCPPLKECPPCAAPDLLGGPSVFIFPPKIKDVLMISLSPMVTCVVVAVSEDDPDVQISWFVNNVEVHTAQTQTHREDYNSTLRVVSALPIQHQDWMSGKEFKCKVNNRALPSPIEKTISKPRGPVRAPQVYVLPPPAEEMTKKEFSLTCMITGFLPAEIAVDWTSNGRTEQNYKNTATVLDSDGSYFMYSKLRVQKSTWERGSLFACSVVHEGLHNHLTTKTISRSLGKGGGSAPTSSSTSSSTAEAQQQQQQQQQQQQHLEQLLMDLQELLSRMENYRNLKLPRMLTFKFYLPKQATELKDLQCLEDELGPLRHVLDLTQSKSFQLEDAENFISNIRVTVVKLKGSDNTFECQFDDESATVVDFLRRWIAFCQSIISTSPQHHHHHH chain 2: EPRVPITQNPCPPLKECPPCAAPDLLGGPSVFIFPPKIKDVLMISLSPMVTCVVVAVSEDDPDVQISWFVNNVEVHTAQTQTHREDYNSTLRVVSALPIQHQDWMSGKEFKCKVNNRALPSPIEKTISKPRGPVRAPQVYVLPPPAEEMTKKEFSLTCMITGFLPAEIAVDWTSNGRTEQNYKNTATVLDSDGSYFMYSKLRVQKSTWERGSLFACSVVHEGLHNHLTTKTISRSLGKGGGSDYKDDDDK | ~50 nM

Target: T1, soluble murine CD25 (His-tagged …)
Assay: yeast surface display, titration with soluble murine CD25
Description: The equilibrium dissociation constant of any particular clone was determined essentially as described (75). […] For picomolar affinity mutants of library 6.2, non-displaying EBY100 cells were spiked in at 90:10 to facilitate pelleting the low numbers of displaying cells. The equilibrium dissociation constant Kd was determined by fitting CD25 concentration and flow cytometry fluorescence data to the monovalent binding isotherm: […]

Binder | binding result
mIL-2 QQ 6.2-13 (yeast-displayed) (ligand, Selective-reversion mutant of a library 6.2 clone; also called reversion mutant) APTSSSTSSSTAEAQQQQQQQQQQQQHLEQLLMDLQELLSRMEDHRNLRLPRMLTFKFYLPEQATELKDLQCLEDELEPLRQVLDLTQSKSFQLEDAENFISNIRVTVVKLKGSDNTFECQFDDEPATVVDFLRRWIAFCQSIISTSPQ | binds
mIL-2 QQ 6.2-4 (yeast-displayed) (ligand, Selective-reversion mutant of a library 6.2 clone; also called reversion mutant) APTSSSTSSSTAEAQQQQQQQQQQQQHLEQLLMDLQELLSRMEDSRNLRLPRMLTFKFYLPKQATELEDLQCLEDELEPLRQVLDLTQSKSFQLEDAENFISNIRVTVVKLKGSDNTFECQFDDEPATVVGFLRRWIAFCQSIISTSPQ | binds
mIL-2 QQ 6.2-10 (yeast-displayed) (ligand, also called reversion mutant) APTSSSTSSSTAEAQQQQQQQQQQQQHLEQLLMDLQELLSRMEDHRNLRLPRMLTFKFYLPEQATELEDLQCLEDELEPLRQVLDLTQSKSFQLEDAENFISNIRVTVVKLKGSDNTFECQFDDEPATVVDFLRRWIAFCQSIISTSPQ | binds
mIL-2 QQ 6.2-11 (yeast-displayed) (ligand, Selective-reversion mutant of a library 6.2 clone; also called reversion mutant) APTSSSTSSSTAEAQQQQQQQQQHLEQLLMDLQELLSRMEDSRNLRLPRMLTFKFYLPEQATELKDLQCLEDELEPLRQVLDLTQSKSFQLEDAENFISNIRVTVVKLKGSDNTFECQFDDEPATVVDFLRRWIAFCQSIISTSPQ | binds
mIL-2 QQ 6.2-8 (yeast-displayed) (ligand, Selective-reversion mutant of a library 6.2 clone; also called reversion mutant) APTSSSTSSSTAEAQQQQQQQQHLEQLLMDLQELLSRMEDHRNLRLPRMLTFKFYLPKQATELEDLQCLEDELEPLRQVLDLTQSKSFQLEDAENFISNIRVTVVKLKGSDNTFECQFDDEPATVVDFLRRWIAFCQSIISTSPR | binds
